Assay results published in publication PMC3226724.

Target: T1, PriB (Escherichia coli, UniProt P07013 1-104)
T1 sequence: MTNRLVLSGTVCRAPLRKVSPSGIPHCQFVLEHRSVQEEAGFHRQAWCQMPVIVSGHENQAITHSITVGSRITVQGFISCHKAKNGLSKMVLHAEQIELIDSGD
Test: sedimentation equilibrium

TTTTTTTTTTTTTTTTTTTTTTTTTT (ssDNA) [5'Fl-dT(pT)25 (called 27-mer)]
binding result: binds
